Measured values published in the supplement of paper PMC10567573.

B1: ZNF24 (parent)
chain: YGETCFPKGRFERKRNPSRKKQHI
B2: ATL3 (parent)
chain: HFKKTKKMGGKDFSFRYQQELEEE

Variants of: B1
Assay: protein stability index of a GFP-peptide fusion (GPS, HEK-293T) (PSI 1-6); higher = more stable
Conditions: c terminus: a fixed tail appended
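Further: lentivirally expressed fusions sorted by FACS into six bins by GFP to DsRed ratio, PSI derived from sequencing read proportions per bin multiplied by bin number.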

Protein stability index: each site, then its substitutions
C5: G 2.17, D 2.67, W 2.53, P 3.61, N 2.43, E 3.15, F 3.83, Y 1.95, K 4.01, S 3.7, M 2.25, L 3.05, V 3.17, I 3.16, A 3.17, T 2.47, H 3.63, R 3.29, Q 3.15
Y1: E 4.46, P 4.1, F 1.9, L 3.9, M 3.99, Q 3.96, H 4.11, A 4.36, K 3.75, C 3.45, T 3.6, W 2.6, V 4.09, S 4.4, D 4.25, N 4.4, R 3.63, I 3.74, G 4.63
T4: G 2.33, V 3.38, P 1.89, L 2.45, W 1.02, N 2.37, H 2.98, A 2.96, M 2.47, I 3.04, Y 2.09, E 3.24, K 2.13, S 3.43, D 3.14, C 2.12, F 2.1, R 3.37
F6: H 4.08, C 3.87, D 4.46, E 4.51, I 3.61, G 3.8, P 4.35, K 3.38, A 3.64, N 4.03, L 3.79, M 4.07
G2: S 3.4, K 3.21, I 1.76, P 2.89, Q 3.44, T 2.33, A 2.34, C 2.1, M 3, F 2.51, E 4.37, L 2.58, D 4.33, Y 2.58, R 3.41, V 2.74, W 3.17, N 3.65, H 2.15
E3: V 3.66, Q 3.2, F 2.71, W 2.26, G 2, N 1.95, L 2.96, P 2.54, T 2.62, H 2.56, A 2.4, K 3.11, M 3.41, D 2.2, Y 2.37, S 2.04, R 2.9, C 2.75, I 2.71

Variants of: B2
Assay: as above
Conditions: c terminus: a fixed tail appended

Protein stability index: each site, then its substitutions
H1: V 2.26, A 2.35, S 1.73, P 3.17, T 3.89, N 2.03, M 2.32, I 1.36
R16: T 4.47, Q 3.08, S 4.39, F 3.07, Y 2.18, V 2.54, N 3.69, H 3.09, L 2.45, C 3.28, G 4.22, P 4.96, E 5.18
L21: V 2.72, D 4.71, N 4.27, E 3.19, Y 1.4, I 2.98, M 1.53, K 3.3, C 2.1, S 4, T 4.24, R 2.46, H 2.44
E24: I 2.16, C 2.74, V 3.28, R 3.35, N 3.49, A 2.68, Y 1.54, M 1.81, P 3.69
D12: P 1.99, V 2.7, I 2.43, L 2.67, S 2.65, M 1.46, A 1.88, R 1.96, T 2.24
K11: P 2.06, I 2.27, F 1.24, N 1.78, E 1.2, S 2.4
E20: F 3.58, C 4.73, W 2, G 3.11, Y 3.14, N 3.16, M 3.43, A 3.31, Q 2.91, I 3.47, K 4.17, D 2.25
K7: M 2.88, S 2.04, Q 2.54, A 2.02, C 2.44, H 2.32, I 2.9
F15: T 2.24, P 4.31, I 1.42, M 2.39, L 2.46, D 1.76, H 2.71, A 2.54
K6: R 1.99, W 1.51, Y 2.38, H 1.52, S 1.81, Q 2.39, C 2.15
F2: V 2.62, H 1.62, Y 2.1, R 2.64, P 1.26, A 1.48, E 1.09, G 1.4, S 1.91, I 2.65, Q 3.05
K3: I 1.89, T 1.04, L 1.98, H 1.73, N 2.18, S 1.79, D 2.34, Y 2.75, A 2.06, F 2.41
G9: M 1.28, C 2.61, S 1.75, R 1.77, F 2.64, L 2.26, I 2.48, K 2.7, P 2.05, T 2.11, D 2.23, Y 1.74
E23: N 2.67, I 1.97, T 2.55, D 2.42, H 2.02, V 2.27, G 1.88, K 2.46, P 4.12, A 2.2, C 3.01
T5: P 1.78, Q 1.8, C 2.37, H 1.83, L 2.53, W 3.29, S 2.26, N 2.58
S14: M 2.91, P 3.12, K 3.31, F 3.85, G 2.54, Q 1.93, N 4.1, C 1.08, H 4.29, E 1.53, D 4.48
F13: D 5.57, I 4.91, P 4.29, K 4.09, Q 5.21, H 2.79, Y 2.75, T 4.97, A 5.27
Q19: F 1.71, W 2.03, K 1.89, E 2.45, S 2.5, T 2.21, G 3.99, P 3.56, N 4.01, V 2.92
G10: I 1.68, K 2.56, H 2.19, V 2.04, Q 1.86, Y 1.79, S 3.53, R 2.03, F 1.82
K4: I 1.66, D 3.67, Y 1.23, W 1.61, P 1.82, V 1.62, C 2.55, G 2.67, H 2.1
M8: D 2.14, C 2.24, N 2.4, L 1.48, E 2.72, H 2.29, A 2.39, I 1.96
Q18: K 2.09, G 1.87, L 2.64, A 2, R 1.44, Y 1.81, H 2.34
Y17: L 2.1, T 2.38, P 4.68, N 5.28, H 3.72, Q 4.78, E 5.02, S 3.14, K 4.89
E22: F 1.85, I 1.79, V 2.41, D 2.2, W 1.3, H 2.83, S 1.8, L 1.99, P 3.31, K 3.18, M 1.8, C 3.15
